Laboratory results from IntAct's records for PubMed 10373560.

B1: Membrane-associated tyrosine- and threonine-specific cdc2-inhibitory kinase (Homo sapiens), Q99640 (parent)
chain: MLERPPALAMPMPTEGTPPPLSGTPIPVPAYFRHAEPGFSLKRPRGLSRSLPPPPPAKGSIPISRLFPPRTPGWHQLQPRRVSFRGEASETLQSPGYDPSRPESFFQQSFQRLSRLGHGSYGEVFKVRSKEDGRLYAVKRSMSPFRGPKDRARKLAEVGSHEKVGQHPCCVRLEQAWEEGGILYLQTELCGPSLQQHCEAWGASLPEAQVWGYLRDTLLALAHLHSQGLVHLDVKPANIFLGPRGRCKLGDFGLLVELGTAGAGEVQEGDPRYMAPELLQGSYGTAADVFSLGLTILEVACNMELPHGGEGWQQLRQGYLPPEFTAGLSSELRSVLVMMLEPDPKLRATAEALLALPVLRQPRAWGVLWCMAAEALSRGWALWQALLALLCWLWHGLAHPASWLQPLGPPATPPGSPPCSLLLDSSLSSNWDDDSLGPSLSPEAVLARTVGSTSTPRSRCTPRDALDLSDINSEPPRGSFPSFEPRNLLSLFEDTLDPT

Variants of: B1
Conditions: with ccnb1_human CCNB1, P14635
Sequence of ccnb1_human CCNB1, P14635 (P14635 whole entry): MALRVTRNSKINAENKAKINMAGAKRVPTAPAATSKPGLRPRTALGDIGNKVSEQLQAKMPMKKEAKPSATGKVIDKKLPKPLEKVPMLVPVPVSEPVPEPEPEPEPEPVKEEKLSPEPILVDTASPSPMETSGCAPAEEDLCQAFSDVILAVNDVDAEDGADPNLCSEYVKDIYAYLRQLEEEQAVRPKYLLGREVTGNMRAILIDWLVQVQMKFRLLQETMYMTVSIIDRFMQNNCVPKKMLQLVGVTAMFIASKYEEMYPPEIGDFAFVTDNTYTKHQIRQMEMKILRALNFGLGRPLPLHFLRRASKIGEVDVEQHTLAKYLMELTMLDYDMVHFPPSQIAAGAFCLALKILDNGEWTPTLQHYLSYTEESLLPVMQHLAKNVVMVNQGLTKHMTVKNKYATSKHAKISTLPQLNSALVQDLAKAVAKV

effect of a mutation on the interaction | Variant
decreasing interaction | R486A;N487A;L488A
